These results are taken from a protein production outcome set (Wang et al. 2014).

A short description of this data set: label from the status in PepcDB records.
In the case of “MALPLSQLPQEIIREVRGRKGLAFLAFVIVSFAVLGAGFVWPYKYQSETIIFVDDRNIIAPLMEGRAVATEINDRTSAAKELLMSRSLIEKVALDPEIYPDAPSDPAALEYRIANIRSGLSVRPRGDSYFSIGFSSTSQMEAFRVAQKLGQVFIEETKDRKRAESRNAYDFIDKQVKSYEQQLAQAENRLKEFLSENTDGTEQEANARMAQLRNQLELAELEKKELETRAASLQSQLGGIRPTITQGRTEDAYRERIRILEERLDSLRLQYHDTYPDIVILREQLAELRKQRDQAAERPTDVSSLEGEEAVNPLYQELRANLSTTRADMATVDTRITSLSRLLEQQAKRMERIQANKAQYSELTRDMEVNREIYDDLLKRREKARVSMHLDIEGQGLNYRINETAQFPRTPSGPQFSMFAAAGLFLGLAAPFGAVAGLLQVDPRIRARKQLEEDIGLPVLVEIPEVRTPYEKRRDRKVTLLIGIFAVLTVTVYVTIVVLAQMGVI”, the protein production result is on record as “failed”.
The entry for “MALPLVSSVSYIKSSNQFHCSFSLRKEKFELSSFFIVLCSHFSYVDTAERLELDRLLLWSSHQKIRFSKRTFSQRIVVKMSASTLPMNLGKAKKVWIWTMCKEVMTVAVERGWNTFIFSSDNRKLSNEWSSIALMDTLFIEEKKVIDGTGNVVASVFEVSTPEELRSLNIENEQIENIVLDFLDWKSIPAENLVAALQGSEKTVFAVSNTPSEAKLFLEALEHGLGGIILKSEDVKAVLDLKEYFDKRNEESDTLSLTEATITRVQMVGMGDRVCVDLCSLMRPGEGLLVGSFARGLFLVHSECLESNYIESRPFRVNAGPVHAYVAVPGGKTCYLSELRTGREVIVVDQKGKQRTAVVGRVKIEKRPLIVVEAKLSTKEEETVYSIILQNAETVALVTPHQVNSSGRTAVPVTSLKPGDQVLIRLQGGARHTGIEIQEFIVEN” is “failed”.
On to “MALPPYDPNFTLAFSYGRRDNVFENDPEHDESASAAIVAVELISSARLALKLDSVRTEYSAQYLVDKAGSRNLRRRRKLTVKDCLNFALKKGGIPRAEDWPPLGSESKTPSSYEPALVSMKGEVIEPKDMDEVPELLVHQSAVGAKLHVFTPHIELQQDVSAIAYARYVGLRDGIVVGTEKIQGKSMAIVKVWYKKKFVVVKVALSRMFYLAGVGPSVLLVDFCVPRLSID”, for which the protein production entry was “failed”.
Turning to “MALSGGDDQVPPGGPMTVSTRLIDAGSTIMQRRLPVKQMNTHVSTFAIYGGDMSRLIGTHHYVHRVNDEFLQCAVYASDRSDAPLIGIEYVISDRLYETLSEDEQKLWHSHAYEVKSGSWAYPRLPEVVAAPELKNIAKTYGKFWCTWQIDRGDKLPMGAPELMMSPQGVGQGVLRPELVKRRDEKYNISTDDLKHTRAEIAEPEWINPMADYWKQHGKCFVLDIATVEMNRHAQFP”, the protein production result is listed as “failed”.
For the sequence “MAMKIPKSGYNRFMKEGAQHFKGTDEAVQRNIEACTELASQIRSAYGPNGMNKMVINHIEKLFVTNDAATILKELEIQHPAARIIIMATEMQEKQIGDNTNTVVILAAALLEHAANLIHMGMTPQEVAAGYEQAAEKALEILPTLVVKEATDMKNIEEVRQYIRSAITSKQYDNEDIIADLVAKACVTTCPANSFNFNVDNIRICKIIGSGVHTSTVMNGMVFKRGAEGEIREARDARIAVYTCPFDLTQTETKGTVLIENADELRNFSKGEEAEVEEQVKAIADNARSSILAKFWLMNFSKGEEAEVEEQQVKAIADNGVKVVVAAGKFGDMYLHFLNKYKIMAVRLTSKFDLRRLCRTVGAQPQARICAPAVNLLGHCDSVAVQEIGDENVVVFDKKSETGKVATIIIRGSSQSRIDDVERAVDDAVNTYKALTKDGKLLAGAGAVEIELAKEIESFGAKAPGLEQYAIKKFAHALETLPKAIAENAGMPTTETLTKLYAEHVAGKKNAGIDIWKRETMDAVVNNIFDLYAGKRLAIKLATDAASTILKVDQIIMSKQATGGPKPRGPKAQDEDDDGMA”, the protein production entry was “failed”.
The entry for “MAMNGTITTWFKDKGFGFIKDENGDNRYFHVIKVANPDLIKKDAAVTFEPTTNNKGLSAYAVKVVPESKYIYIAGERLKLTSIKSYLVYSEEVPADTRIDKENTVLSVGVLMNSIRPKSVAEPDEIRSLKKLAITTFQGTTLIFSEDEIDVDATVKLLKVLEHHHHHH” is “not failed”; for “MAMNLPADNEGKIKLAMSILVTIINDTGVPRNIRRAAANALTHLRDPRLSPAVRAANAISALEEVSQDPNMPFYARTRIWQVITILETVRD” it is “failed”.
The entry for “MAMPAHMTLTGEKQGKIDGSCELQGRENTIQLYEMKHDIHMPRNPHDGLPTGKRVHGPLSIVKMFDKSSPKLYQALCTGEHMKNVQIKWYRINKQGLEEHYFTTTLEDAIVVEMKPYMPMTLLPANEPYGHMEEVAFSYKKIKWTWEPNGIEAEDSWSVPK” is “failed”; for “MAMSFSGAVLTGMASSFHSGAKQSSFGAVRVGQKTQFVVVSQRKKSLIYAAKGDGNILDDLNEATKKASDFVTDKTKEALADGEKAKDYVVEKNSETADTLGKEAEKAAAYVEEKGKEAANKAAEFAEGKAGEAKDATK” it is “failed”; for “MAMVSGRRSTLNPDAPLFIPAAVRQVEDFSPEWWQLVTTSTWYPDYWISQQQQGADGFYDNGENENGGGHIDVADLLPESFDFDDMEDFFDTDAAEFDQGFDGRMYYQAPSEFGFGKNGEMVKKSSGNRSPRSIVEPAKYAEKPAKWGNQRVAAAPRNIHQPR” it is “failed”.
With “MANAIRLPPEAYPMSIAAQKNDDDRQARALAALAEKPDGIVEAIAAKAEVAPAEILAILPQGAAVSAPADRFDAIWNEMRGWGEILMIVQTGDIVLEVPGHLPEGTESHGWFNIHGDSPIGGHIKKDNCAAITFVDRGFHGRRSCSVWFMNAAGGAMFKIFVRRDENKELLAGQLAKFEELRDGFRGLEHHHHHH” the entry was “not failed”.
Regarding “MANATFSADKLKQLTLQITKLARVAGDFQINELKNFERSNIEHKGRSNDLVSYVDKETEKLLIESLTKLVPEAGFETEEGTVEQTQSGLRWIIDPLDGTTNFLHKLPLFSISIALVQDETLLIGVVHEPSRNECFYAWKNGGAYMNGERIETSSITEISDALIATGFPYSLRGKSDQYFTLIRHFVETTHGVRRLGSAAIDLCYVACGRFEAYFEFNLKPWDVAAGILIVREAGGIVSNYSGGDDHCQTAEEVCAAGRHIHPLMIDTFKKIW”, the protein production entry was “failed”.
For the sequence “MANCFAPQLTFPSFSPRHFSPRMSHQSPKPSTSTTTSIFTSATKLLWGPSLPPGLLISTARTAWTTVWQLMMTQLAPSDSSGSYTRPTSKFRLDPTQFTSAASSELHLYVGLPCPWAHRTLIVRALKGLNDAVPVSIASPGQDGSWEFKNNNIPIKDKDKLIPSLDKANRCRNLKEVYKSRSGGYDGRCTVPMLWDLRKKDVVCNESYDIIEFFNSGLNKLARNDNLDLSPPELKEMIQGWNQIVYPKVNNGVYRCGFAQSQEAYDGAVNELFSTLDEIEDHLGSNRYLCGERLTLADVCLFTTLIRFDSVYNILFKCTKKKLVEYPNLYGYLREIYQIPGVAATCDISAIMDGYYKTLFPLNASGIQPAISSSGDQDSLWRPHNRDLVGKAIEAQLSV”, the protein production entry was “failed”.
As to “MANDGATVFWLSFLAIILGFLSWKFKKIGGISLIAISIYGLFVNGLFFIFAFVFLMIAGILSFKIKPTSPKDVKIAN”, the protein production entry is listed as “failed”.
As for “MANDGYFEPTQELSDETRDMHRAIISLREELEAVDLYNQRVNACKDKELKAILAHNRDEEKEHAAMLLEWIRRCDPAFDKELKDYLFTNKPIAHE”, the protein production entry is given as “not failed”.
With “MANFKVVVSDPKEARAYQIDIKDAEANALIGKSIGDVVDGSIFGLAGYKVQITGGCDGSGFVMKPDLPGPRRQRILTATGVGYVPKLPGQRRRKMMRGKEIAPDIVQVNAKVVEYGSKSIKALLGLETAEEAPAAELEHHHHHH” the entry was “not failed”; with “MANGPGCACPRCGAPRASGPECPRCGVIYAKARARAAPSPAPSGPGTSLPDPGAAGLALGMPARARWSGELDGARRELWIRAVAPPAALLLALALVSSGPGHALLRTFLSMWIHELGHAVTAWLCGHGAFPGPWRTPISSGRLPLVVIAVSGALAALAWRGWRSGRRAILAAGAAGLGVQLVCTLLPATTARALITFGGDAGCMVIGAALVATIWADPEGPLGRGSLRWGFLVIGAAALVDALHGWVRAWRDPGELPLGEIEGVGLSDASTLMQVHRWSASALSGRYVALGLACLAALGATYAVMLARARGAVAAERRAA”, “failed”; with “MANGTTPSVGIALGSGAAKGWAHIGVLNGLAAMGIKPDKVAGCSVGALVGAAYAHDHLPELEEWVRSFSSWDVLGLMDIRWRKGGLIGGDKVFDVLQARIGDVNIENLNRPFAAVATDLYSGQEIWFTEGDLRQAVRASCSMPGILAPVRQGDRWLVDGAVVNPVPVSVSRAMGVDVVIAVDLYGYHSGRIQVLPVSMTSQKNVEAEMDMSARQETGFMDLFARGRDYVSNLTDKFSLGTKSNPGMIAVMSQSMGILEQRHKRARLMGDPPDICIVPEVGNIGTMEFHRADEAIAAGEAAVEKVAHLIEAALWKG”, “not failed”.
In the case of “MANHVSLILPPLSLYIHIPWCVQKCPYCDFNSHTQKGTIPEAEYIQHLLADLSQDLVTYKTAIANRKIHSIFIGGGTPSLFSAEAIAYLLAEIKQRIAFAPKIEITLEANPGTAEAERFICYTEAGINRISMGIQSFEEEKLRKLGRIHDAHEAKQAVYFAKNALISPSRTVGLHSFNLDLMHGLPNQTLEQALADLNTAISLNPPHFSWYQLTIEPNTMFYYRQPTLPDDDELWAIFEQGHQLLTMAGYQQYETSAYAKQGFQCQHNLNYWRFGDYLAIGCGAHGKISYPSGEIYRFSKTKHPKGYMRGDYRDSQQSIQLDDRPFEFFMNRFRLLEPTPKQEFECYTGLDCERVRPTIDWALNKHYISETSTTWQVTQKGKLFLNELLAGFLTLEHHHHHH”, the protein production result was “failed”.
For “MANVAIIGTEKSGRTSLAANLGKKGTSSDITMYNNDKEGRNMVFVDAHSYPKTLKSLITALNISDIAVLCIPPQGLDAHTGECIIALDLLGFKHGIIALTRSDSTHMHAIDELKAKLKVITSGTVLQDWECISLNTNKSAKNPFEGVDELKARINEVAEKIEAENAELNSLPARIFIDHAFNVTGKGCVVLGVVKQGISKDKDKTKIFPLDRDIEIRSIQSHDVDIDSAPAGTRVGMRLKNVQAKDIERGFIISDKEIVTTDYTLECTVSKFTKKIEPASVLHLFVGLQSEPVRVEKILVDGNEVEEAKPGSTCVLELSGNKKLAYSKQDRFLLANLDLTQRFAAYGFSK”, the protein production entry is given as “not failed”.
With “MANVDRRQMLLLSGLGATAAVLPVPRAAAVPNQTAASYVFADEFDGPAGSAPSAAKWTIAKARETIQDPTYWEQPGRIGQYRNDRRNVFLDGKSNLVIRAAKDGDTYYSAKLASVWEGGAGHTWEARIKFNCLTAGAWPAFWLGNTGEGELDIIEWYGNGSWPSATTVHAKSNGGEWKTHNIAVDNGWHRWRTQWDAEGARFWLDYTDGAQPYFEVAASSLPDWPFDQPGYTMFVVLNLAVAGSGGGDPSGGTYPADMLVDWVRVW” the entry was “not failed”; with “MAPCLENVACVNLSAMPPAPPSPQPVSHKQAATLCRQGRTCALKSGSNESGGSVTSTYTSYRLISQDIGKSLERVSKQPDVARETEYYREKIGSVKSIDDFMADTRLYNYALKAHGLEDMAYAKAFIRKVLTEGASDKNAFANKLSDNRYAELAKSLDFAGLGAAATATEAAKSGVIGNYARQTLEQEAGDDNNGVRLALYFERKAPTIKSGLDFLADDALAQVFRTTFNLPDAFAAADVDKQAALIEKSINIKDLQDPEKVGKLLERFTIMWEMQNPSTTYDPLAVFGSSSGYGISPDLLISINSLKLGGKLEHHHHHH”, “not failed”.
Consider “MAPDLSGTWYVLEGDPGEHLVVEALGERLSGIWTSRELAEAFLAHHPHLGMRVSALESRALKEAYLRALGMLQVEAVMVDYRPGTHRAQVARVKDLLEEVRRA”, for which the protein production entry was “not failed”.
